Experimental data published in patent US20240409617A1.

Assays:
[1] = target: B.1.351 Spike (SARS-CoV2)
[2] = target: B.1.1.7 Spike (SARS-CoV2)
[3] = target: P.1 Spike (SARS-CoV-2 spike protein, Brazilian variant P.1) (SARS-CoV-2)
[4] = target: B.1.1.7 Spike (SARS-CoV-2 spike protein, UK variant B.1.1.7) (SARS-CoV-2)
[5] = target: B.1.351 Spike (SARS-CoV-2 spike protein, South African variant B.1.351) (SARS-CoV-2)

Binder | Kd (P.1 Spike (SARS-CoV2)) [pM] | Response (P.1 Spike (SARS-CoV2)) | Kd [1] [pM] | Response [1] | Kd [2] [pM] | Response [2] | Kd [3] [pM] | Response [3] | Kd [4] [pM] | Response [4] | Kd [5] [pM] | Response [5]
Ab_14 scFv-Fc (scFv, V domains shown) VH: QVQLQQSGPGLVKPSQTLSLTCAISGDSVSSNSAAWNWIRQSPARGLEWLGRTYYRSRWYNDYAISMKSRITINPDTSKNQFSLQLESVTPEDTAVYYCAREIRGFDYWGQGTLVTVSS VL: QSVLTQPPSASGSPGQSVTISCTGTSSDVGAYNFVSWYQHHPGKAPKLIIYDFNKRPSGVPDRFSGSKSGNTASLTVSGLQADDEADYYCSSYAGSNNFDVVFGGGTKLTVL | 9.75 | 0.27 | 3.1 | 0.253 | 7.98 | 0.355 |  |  |  |  |  | 
Ab_16 scFv-Fc (scFv, V domains shown) VH: QVQLVQSGGGVVQPGRSLRLSCAASGFTFSNYGMHWVRQAPGKGLEWVALIWERGSKKDYADSVKGRFTVSRDNSKNTLYLQMNSLRPEDTAVYFCAREGISMTGAEYFQHWGQGTLVTVSS VL: QSVLTQPPSVSGSPGQRVTMSCTGSSSNIGAGYDVHWYQQVPGAAPRLLIYGTNNRPSGVPDRFSGSKSGTSASLTITGLQAEDEADYYCQSYDNSLTDPYVFGTGTKVTVL | 7.93 | 0.35 | < 1 | 0.405 | 2.36 | 0.388 |  |  |  |  |  | 
Ab_17 scFv-Fc (scFv, V domains shown) VH: QVQLVQSGGGVVQPGRSLRLSCAASGFTFDDYAMHWVRQVPGKGLEWVSGIDWNSGVIGYADSVKGRFTISRDNVKNSLYLQMNSLRTEDSALYYCAKDIGPGGSGSYYAFDIWGQGTTVTVSS VL: QSALTQPASVSGSPGQSITISCTGTSSDVGGSKYVSWYQQHPGKAPKVMIYDVTKRPSGVPDRFSGSKSGNTASLTISGLQAEDEADYYCAAWDDSLNGVVFGGGTKLTVL | 8 | 0.177 | 562 | 0.199 | 1.85 | 0.331 |  |  |  |  |  | 
Ab_18 scFv-Fc (scFv, V domains shown) VH: EVQLVQSGGGVVQPGRSLRVSCAASGFSFSRYGMHWVRQAPGKGLEWVAFIRHDGSKKYYADSVEGRFTISRDNSRNTVSLEMNSLRGEDTAVYYCAKDGRLEAALDDWGQGTLVTVSS VL: NFMLTQPHSMSGSAGKTVTVSCIRSSGSIANNFVQWYQQRPGSAPTTVIYEDNQRPSGVPDRFSGSIDSSSNSASLTISGLKTEDEADYYCQSYDSSNLVFGGGTRLTVL | 2.97 | 0.109 | 1340 | 0.12 | 9.28 | 0.256 |  |  |  |  |  | 
Ab 30 scFv-Fc (scFv, V domains shown) VH: QVQLVQSGGGVVQPGKSLRLSCTASGFTFSDFPIHWVRQAPGKGLEWVGVISYDGNIKYYGDSVKGRFTISRDNAKNSLYLQMNSLRVEDTAVYYCARGGSSFDIWGQGTTVTVSS VL: SYELTQPPSVSEAPRQRVTISCSGSTSNIGNNAVSWYQHLPGKAPKLLIYYNERLPSGVSDRFSGSKSGTSASLAISGLRSEDEADYYCAAWDDSLSGHVVFGGGTKLTVL |  |  |  |  |  |  | 9.02 | 0.0766 | < 1 | 0.139 | < 1 | 0.0883
Ab_27 scFv-Fc (scFv, V domains shown) VH: QVQLVQSGTEVKKPGASVKVSCKASGYSFTGSHLHWVRQAPGQGLEWMGWINPDSGVINYAQKFQGRVTLTRDTSISTAYMELSGLRSDDTAVYYCARDKAIGYVWALDYWGQGTLVTVSS VL: QSALTQPPSVSGSPGQSVTISCTGTSSDVGTYNRVSWYQQPPGKAPKLMIYEVSNRPSGVSNRFSGSKSGNTASLTISGLQAEDEADYYCSSYTRTFTYVFGTGTKVTVL | 8.9 | 0.0795 | 1.25 | 0.0974 | 1.57 | 0.281 |  |  |  |  |  | 
Ab_23 scFv-Fc (scFv, V domains shown) VH: EVQLVQSGAEVKKPGSSVKVSCRSSGGTFSTYGITWVRQAPGQGLEWMGRIIPSLGIPNYAQKFQGRVTITADTSVSTAWMELSSLESDDTAIYYCARENIDLATNDFWGQGTLVTVSS VL: QSALTQPPSASGSPGQSVTISCTGTSRDIGAYGYVSWYQQVPGKAPKLIIYEVRNRPSGVSSRFSGSKSGNTASLTISGLQAEDEADYYCSSYTSSSTLDVVFGGGTKLTVL | 8.79 | 0.123 | 7.58 | 0.189 | 9.11 | 0.135 |  |  |  |  |  | 
Ab_19 scFv-Fc (scFv, V domains shown) VH: EVQLVESGAEVKKPGESLKISCKGSGYSFTSYWIGWVRQMPGKGLEWMGIIYPGDSDTRYSPSFQGQVTISADKSISTAYLQWSSLKASDTAMYYCARRGDLDAFDIWGQGTMVTVSS VL: QPGLTQPPAASGTPGQRVTVSCSGASANIGSNAVSWFKQFPETAPRLLISGNTHRPSGVPDRVSGSKSGTSASLTISGLQSDDEADYYCAAWDDSLNGYVFGSGTKVTVL | 8.94 | 0.204 | 11.8 | 0.258 | 10.3 | 0.203 |  |  |  |  |  | 
S1-R3-T1-C4 (Ab_8) scFv-Fc (scFv, V domains shown) VH: QVQLVQSGAEVKKPGSSVKVSCKASGGTFSSYAISWLRQAPGQGLEWMGWINPNSGGTNYAQKFQGRVTMTRDTSISTAYMELSRLRSDDTAVYYCARGSGGYYLGWGQGTLVTVSS VL: QPGLTQPPSVSKGLRQTATLTCTGNSNNVGNQGAAWLQQHQGHPPKLLSYMNNNRPPGISERFSASRSGNTASLTITGLQPEDEADYYCSAWDSSLSRWVFGGGTKLSVL | 10.6 | 0.0784 | 1090 | 0.0872 | 2.29 | 0.202 |  |  |  |  |  | 
S1-RBD-R3-T1-F5 (Ab2-7) scFv-Fc (scFv, V domains shown) VH: QVTLKESGPTRVKPTQTLTLTCTFSGFSLSTTGVGVGWIRQPPGKALEWLALIYWNDDKRYSPSLKSRLTITKDTSKNQVVLTMTNMDPVDTATYYCARISGSGYFYPFDIWGQGTTVTVSS VL: NFMLTQPHSVSESPGKTVTISCTRSSGSIASNYVQWYQQRPGSSPTTVIYEDNQRPSGVPDRFSGSIDSSSNSASLTISGLKAEDEADYYCQSYDSSSLWVFGGGTKLTVL | 7.04 | 0.152 | 360 | 0.13 | 379 | 0.127 |  |  |  |  |  | 
Ab_28 scFv-Fc (scFv, V domains shown) VH: QVTLKESGPGLVNPSETLSLTCTVSGASISNSFWSWIRQSPGKGLEWIGYTSYSGNSIYNPSLKSRLTMSIDTSKNQLSLNLRSLTAADTAVYYCARREWIKGHFDYWGQGTLVTVSS VL: NFMLTQPHSVSESPGKTVTISCTGSGGSIASNYVQWYQQRPGSAPTTVIYEDNQRPSGVPDRFSGSIDSSSNSASLTISGLKTEDEADYYCQSYDSSNPVVFGGGTKLTVL | 8.91 | 0.102 | 6.38 | 0.12 | 1.49 | 0.206 |  |  |  |  |  | 
Ab 29 scFv-Fc (scFv, V domains shown) VH: QVQLQQSGPGLVKPSQTLSLTCAISGDSVSSYSDAWNWIRQSPSRGLEWLGRTYYRSKWYNDYAVSVKSRITINPDTSKNQFSLQLSSVTPEDTAVYYCAREIVATTPFRNYYYGMDVWGQGTTVTVSS VL: NFMLTQPHSVSESPGNTVTISCTRTSGSIASNYVQWYQQRPGSSPTTVIFQDKLRPSGVPDRFSGSIDSSSNSASLTISGLKTEDEADYYCQSYDSSSLWVFGGGTKLTVL |  |  |  |  |  |  | 8.45 | 0.0232 | 693 | 0.118 | 371 | 0.0418
Ab_13 scFv-Fc (scFv, V domains shown) VH: QVTLKESGPKLVKPTQTLTLTCTFSGFSLSTSGVGVGWIRQPPGKALEWLALIYWDDDKRYSPSLKSRLTIAKDTSKYQVVLTMTNMDPVDTATYYCARISGSGYFYPFDIWGQGTMVTVSA VL: NFMLTQPHSVSESPGKTVTISCTRSSGSIASNYVQWYQQRPGSAPTTVIYEDNQRPSGVPDRFSGSIDSSSNSASLTISGLKTEDEADYYCQSYDSSNLWVFGGGTKLTVL | 4.88 | 0.112 | 735 | 0.103 | 1.91 | 0.113 |  |  |  |  |  | 
Ab_20 scFv-Fc (scFv, V domains shown) VH: QVQLVQSGGGSVKPGGSLRLSCAASGYRLSDYYMHWVRQAPGKGLEWVANIKQDGSEKYYVDSVKGRFTISRDNAKNSLYLQMNSLRAEDTAVYYCARVRGWSRGYFDYWGQGTLVTVSS VL: NFMLTQPHSVSESPGKTVTISCTGSSGSIASNYVQWYQQRPGSAPTTVIYEDNQRPSGVPDRFSGSIDSSSNSASLLISGLKTEDEADYYCQSYDSSNHWVFGGGTKLTVL | 11.2 | 0.17 | 7.03 | 0.213 | 2.6 | 0.173 |  |  |  |  |  | 
Ab_25 scFv-Fc (scFv, V domains shown) VH: QVQLVQSGGGLVQPGGSLRLSCAASGFTFSSYWMSWVRQAPGKGLEWVANIKQDGSEKYYVDSVKGRFTISRDNAKNSLYLQMNSLRAEDTAVYYCARGFYYYGAFDIWGQGTTVTVSS VL: NFMLTQPHSVSESPGKTVTISCTGSSGSIASNYVQWYQQRPGSAPTTVIYEDNQRPSGVPDRFSGSIGSSSNSASLTISGLKTEDEADYYCQSYDSSNHWVFGGGTKLTVL | 8.72 | 0.0396 | 1.13 | 0.0577 | 427 | 0.0668 |  |  |  |  |  | 
Ab_26 scFv-Fc (scFv, V domains shown) VH: QVQLVQSGGGLVQPGRSLRLSCAASGFTFDDYAMHWVRQVPGKGLEWVSGIDWNSGVIGYADSVKGRFTISRDNAKNSLYLQMNSLRAEDTALYYCAKDAYSYGFLGAFDIWGQGTMVTVSS VL: LPVLTQPPSVSVAPGQTASITCGGDNIRTKGVHWYQQKPGQAPLLVIYYASDRPSGIPERFSGSSSGNTATLTISRVEAGDEADYYCQVWDSSSDLVVFGGGTTLTVL | 10.3 | 0.188 | 1.78 | 0.214 | 1.37 | 0.336 |  |  |  |  |  | 
Ab_21 scFv-Fc (scFv, V domains shown) VH: QVQLVQSGGGLVQPGGSLRLSCATSGFTFDDYAMHWVRQAPGKGLEWVSGISWNSGSIGYVDSVKGRFTISRDNRNNKVYLQMNNLRAEDTAVYYCARDWWGSIDHWGLGTLVTVSS VL: QSALTQPRSVSGSPGQSVTISCTGTSSDVGGYDYVSWYQQHPGKAPKLIIYDVSKRPSGVPDRFSGSKSGNTASLTVSGLQAEDEADYYCSSYTSSSPVVFGGGTKLTVL | 9.52 | 0.103 | 369 | 0.148 | 1.47 | 0.199 |  |  |  |  |  | 
